In US20240288416:

Key:
substrate 1 (S1) = molecular target: T1, substrate 1 (S1)
T1 chain: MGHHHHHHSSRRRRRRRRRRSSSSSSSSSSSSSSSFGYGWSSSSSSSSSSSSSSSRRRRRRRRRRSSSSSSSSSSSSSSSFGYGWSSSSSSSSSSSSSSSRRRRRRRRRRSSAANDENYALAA

[1] = molecular target: green fluorescent protein (GFP) carrying an ssrA tag at the C-terminus

B1: Valosin-containing protein-like ATPase of Thermoplasma acidophilum (protein)
chain: MESNNGIILRVAEANSTDPGMSRVRLDESSRRLLDAEIGDVVEIEKVRKTVGRVYRARPEDENKGIVRIDSVMRNNCGASIGDKVKVRKVRTEIAKKVTLAPIIRKDQRLKFGEGIEEYVQRALIRRPMLEQDNISVPGLTLAGQTGLLFKVVKTLPSKVPVEIGEETKIEIREEPASEVLEEVSRISYEDIGGLSEQLGKIREMIELPLKHPELFERLGITPPKGVILYGPPGTGKTLIARAVANESGANFLSINGPEIMSKYYGQSEQKLREIFSKAEETAPSIIFIDEIDSIAPKREEVQGEVERRVVAQLLTLMDGMKERGHVIVIGATNRIDAIDPALRRPGRFDREIEIGVPDRNGRKEILMIHTRNMPLGMSEEEKNKFLEEMADYTYGFVGADLAALVRESAMNALRRYLPEIDLDKPIPTEILEKMVVTEDDFKNALKSIEPSSLREVMVEVPNVHWDDIGGLEDVKREIKETVELPLLKPDVFKRLGIRPSKGFLLYGPPGVGKTLLAKAVATESNANFISIKGPEVLSKWVGESEKAIREIFKKAKQVAPAIVFLDEIDSIAPRRGTTSDSGVTERIVNQLLTSLDGIEVMNGVVVIGATNRPDIMDPALLRAGRFDKLIYIPPPDKEARLSILKVHTKNMPLAPDVDLNDIAQRTEGYVGADLENLCREAGMNAYRENPDATSVSQKNFLDALKTIRPSVDEEVIKFYRTLSETMSKSVSERRKQLQDQGLYL
In the case of B1, the “Ires % during VAT-assisted translocation through the inactive proteasome-nanopore (VAT 20.0 µM, ATP 2.0 mM)” value (substrate 1 (S1)) is reported as “Ires %=83.81±0.11”, the “average dwell time of VAT-assisted translocation events (inactive proteasome-nanopore, ATP 2.0 mM)” value (substrate 1 (S1)) is reported as “average dwell time is 5.8±3.9 ms” and the “average dwell time of GFP blockades at 6.0 mM ATP” value [1] is reported as “decreased 10-fold to 2.4±1.7 ms”. For the same protein, the “average dwell time of current blockades (inactive proteasome-nanopore, VAT, ATP 2.0 mM)” value [1] was “average dwell time is 22.1±20.2 ms”.
